In publication PMC11267363, “Supramolecular Nanofibers Ameliorate Bleomycin‐Induced Pulmonary Fibrosis by Restoring Autophagy” (Advanced Science, 2024) one finds Kd data, which are given here for one molecule.

The target of this assay is T1, Recombinant human TRB3 (tribbles homolog 3) (human, UniProt Q96RU7 1-358).
T1 construct: pseudokinase tribbles homolog 3 (TRB3), human, recombinant; as I recall, the catalogue suffix H09B stands for a His and GST tagged protein made in baculovirus-infected insect cells (surmise); also called TRB3 protein; human TRB3 protein; source: bought: Sino Biological (10731-H09B)
T1 sequence (looked up): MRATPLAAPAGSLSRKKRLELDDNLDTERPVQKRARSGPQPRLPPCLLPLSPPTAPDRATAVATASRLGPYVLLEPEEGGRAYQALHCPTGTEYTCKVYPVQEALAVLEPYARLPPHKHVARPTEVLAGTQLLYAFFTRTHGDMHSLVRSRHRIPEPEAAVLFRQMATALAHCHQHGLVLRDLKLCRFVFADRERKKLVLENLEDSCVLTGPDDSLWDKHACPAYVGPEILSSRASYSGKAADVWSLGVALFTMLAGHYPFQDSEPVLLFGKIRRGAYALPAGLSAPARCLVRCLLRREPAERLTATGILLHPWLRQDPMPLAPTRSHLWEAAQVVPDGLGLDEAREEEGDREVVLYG
Put plainly: MST; Monolith NT.115; Ac-GFFY-A2 or A2 against human TRB3 protein or BSA (negative control); which partner was labelled is not told. The settings on record: both partners purified.

B1: A2 peptide (TRB3-binding peptide fragment derived from p62) (peptide)
peptide: GGWLTRLLQTK
notes: also called non-self-assembling peptide A2; source: synthetic peptide (SPPS, purified by HPLC)
As for B1, the Kd is roughly 3.21 µM.
